Assay [1] concerns the target T1, EGFR (UniProt P00533 25-645, limits assumed).
T1 construct: also called Antigen 1
Put plainly: affinity of the EGFR binding region in the IgG-Fab; method not named on the sheet or in the legend.

The target of assay [2] is T2, Human Epidermal Growth Factor Receptor 3 (HER3), soluble antigen (human, UniProt P21860 20-643, limits assumed).
T2 construct: also called b-HER3; b-HER3-HIS
The assay can be described thus: affinity of the HER3 binding region in the IgG-Fab; method not named on the sheet or in the legend.

Assay [3] has as its target T1, EGFR. Put plainly: affinity of the EGFR binding region in the IgG-Fab; method not named on the sheet or in the legend. The source holds these as a separate data set.
Assay [4] concerns the target T3, Human Epidermal Growth Factor Receptor 2 (HER2), soluble antigen (human, UniProt P04626 23-652, limits assumed).
T3 construct: also called b-HER2; b-HER2-HIS
Put plainly: affinity of the HER2 binding region in the IgG-Fab; method not named on the sheet or in the legend.

Where two headings read alike, the source gives them in different places.

As a reminder, the Kd is a measure of binding affinity in units of concentration.

B1: N-terminal EGFR::C-terminal HER3 multispecific antibody analog (Analog 3) (bispecific antibody, human IgG1, kappa)
heavy: not shown
light: DIQLTQSPSSVSASVGDRVTITCRASQDISSWLAWYQQKPGKAPKLLIYAASSLQSGVPSRFSGSGSGTDFTLTISSLQPEDFATYYCQQEHDFPWTFGGGTKVEIKRTVAAPSVFIFPPSDEQLKSGTASVVCLLNNFYPREAKVQWKVDNALQSGNSQESVTEQDSKDSTYSLSSTLTLSKADYEKHKVYACEVTHQGLSSPVTKSFNRGEC
notes: IgG-Fab 2+2 format: EGFR VH-CH1-hinge-CH2-CH3-(G4S)3-HER3 VH-CH1, two copies, with four copies of the common light chain; also called N-term-EGFR::C-term-HER3; EGFR-HER3 IgG-Fab
As to B1, the results for the equilibrium dissociation constant (Kd) (with EGFR [1]; in assay [2]) were 0.29 nM and 0.049 nM, respectively.

B2: N-terminal HER3::C-terminal EGFR multispecific antibody analog (Analog 4) (bispecific antibody, human IgG1, kappa)
heavy: not shown
light: B1 light
notes: IgG-Fab 2+2 format: HER3 VH-CH1-hinge-CH2-CH3-(G4S)3-EGFR VH-CH1, two copies, with four copies of the common light chain; also called N-term-HER3::C-term-EGFR; HER3-EGFR IgG-Fab
As for B2, the Kd was determined as 0.87 nM with EGFR [1] and 0.049 nM in assay [2].

B3: N-terminal-EGFR::C-terminal HER2 multispecific antibody analog (Analog 1) (bispecific antibody)
heavy: not shown
light: DIQLTQSPSTLSASVGDRVTITCRASQAISSWLAWYQQKPGKAPKLLIYDASSLESGVPSRFSGSGSGTEFTLTISSLQPDDFATYYCHQYQSYSWTFGGGTKVEIKRTVAAPSVFIFPPSDEQLKSGTASVVCLLNNFYPREAKVQWKVDNALQSGNSQESVTEQDSKDSTYSLSSTLTLSKADYEKHKVYACEVTHQGLSSPVTKSFNRGEC
notes: IgG-Fab 2+2 format: EGFR VH-CH1-hinge-CH2-CH3-(G4S)3-HER2 VH-CH1, two copies, with four copies of the common light chain; also called N-term-EGF::C-term-HER2; EGFR-HER2 IgG-Fab
In the case of B3, the Kd in the assay with EGFR [3] was 0.17 nM; in assay [4], 8.2 nM.

B4: N-terminal HER2::C-terminal EGFR multispecific antibody analog (Analog 2) (bispecific antibody, human IgG1, kappa)
heavy: not shown
light: B3 light
notes: IgG-Fab 2+2 format: HER2 VH-CH1-hinge-CH2-CH3-(G4S)3-EGFR VH-CH1, two copies, with four copies of the common light chain; also called N-term-HER2::C-term-EGFR; HER2-EGFR IgG-Fab
Take B4: the Kd with EGFR [3] worked out at 0.47 nM; in assay [4], 0.1 nM.
